The results in this text go back to US20250163117A1 (CURE GENETICS, published 2025).

Common to all, as to assay: cell-based or functional assay
Assay [1] has as its target T1, human intermediate-affinity IL-2 receptor IL-2Rβγ on cells (human, UniProt P14784 27-551; P31785 23-369).
T1 sequence (looked up) 1: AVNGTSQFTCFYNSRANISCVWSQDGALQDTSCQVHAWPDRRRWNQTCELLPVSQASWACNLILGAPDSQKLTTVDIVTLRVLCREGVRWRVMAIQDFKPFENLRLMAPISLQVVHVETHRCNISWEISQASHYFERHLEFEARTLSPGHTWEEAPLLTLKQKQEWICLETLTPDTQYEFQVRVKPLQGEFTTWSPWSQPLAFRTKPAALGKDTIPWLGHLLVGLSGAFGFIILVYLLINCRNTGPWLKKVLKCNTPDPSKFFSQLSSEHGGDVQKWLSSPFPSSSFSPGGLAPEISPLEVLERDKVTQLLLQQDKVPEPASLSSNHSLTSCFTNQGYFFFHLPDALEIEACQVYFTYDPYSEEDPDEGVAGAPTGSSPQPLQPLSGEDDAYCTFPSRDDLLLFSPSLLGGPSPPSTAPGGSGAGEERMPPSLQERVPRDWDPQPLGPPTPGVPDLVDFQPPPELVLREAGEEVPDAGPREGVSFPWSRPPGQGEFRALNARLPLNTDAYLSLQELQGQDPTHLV
T1 sequence (looked up) 2: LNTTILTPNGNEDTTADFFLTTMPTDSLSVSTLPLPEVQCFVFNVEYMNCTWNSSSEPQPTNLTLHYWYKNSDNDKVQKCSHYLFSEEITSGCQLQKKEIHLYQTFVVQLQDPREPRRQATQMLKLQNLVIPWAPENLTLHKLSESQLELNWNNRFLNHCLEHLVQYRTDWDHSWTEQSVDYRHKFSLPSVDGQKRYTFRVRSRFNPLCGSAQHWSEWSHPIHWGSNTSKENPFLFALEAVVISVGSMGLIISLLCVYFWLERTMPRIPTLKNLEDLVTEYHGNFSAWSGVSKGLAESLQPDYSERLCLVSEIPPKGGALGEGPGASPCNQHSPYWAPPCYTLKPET

The target in assay [2] is T2, mouse high-affinity IL-2 receptor IL-2Rαβγ on cells (mouse, UniProt P01590 22-268; P16297 27-539; P34902 23-369).
T2 sequence (looked up) 1: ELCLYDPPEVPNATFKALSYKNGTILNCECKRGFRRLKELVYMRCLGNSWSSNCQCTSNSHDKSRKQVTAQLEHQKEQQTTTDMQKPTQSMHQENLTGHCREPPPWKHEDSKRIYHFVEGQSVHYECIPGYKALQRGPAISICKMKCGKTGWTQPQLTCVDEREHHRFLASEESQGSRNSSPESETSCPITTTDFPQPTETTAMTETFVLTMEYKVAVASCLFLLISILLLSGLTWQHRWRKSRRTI
T2 sequence (looked up) 2: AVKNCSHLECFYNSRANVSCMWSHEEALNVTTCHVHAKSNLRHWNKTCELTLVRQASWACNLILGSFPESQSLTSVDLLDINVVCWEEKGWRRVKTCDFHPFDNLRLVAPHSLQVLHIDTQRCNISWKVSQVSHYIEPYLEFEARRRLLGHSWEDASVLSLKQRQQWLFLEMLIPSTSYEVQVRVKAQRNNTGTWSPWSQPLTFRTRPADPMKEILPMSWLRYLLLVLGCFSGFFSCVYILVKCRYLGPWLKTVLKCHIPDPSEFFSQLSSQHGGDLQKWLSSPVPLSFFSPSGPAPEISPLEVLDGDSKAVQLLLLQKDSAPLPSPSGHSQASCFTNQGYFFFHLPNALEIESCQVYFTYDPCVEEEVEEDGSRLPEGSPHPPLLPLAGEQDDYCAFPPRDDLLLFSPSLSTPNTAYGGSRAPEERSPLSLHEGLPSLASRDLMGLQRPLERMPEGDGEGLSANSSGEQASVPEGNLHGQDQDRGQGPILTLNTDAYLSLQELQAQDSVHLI
T2 sequence (looked up) 3: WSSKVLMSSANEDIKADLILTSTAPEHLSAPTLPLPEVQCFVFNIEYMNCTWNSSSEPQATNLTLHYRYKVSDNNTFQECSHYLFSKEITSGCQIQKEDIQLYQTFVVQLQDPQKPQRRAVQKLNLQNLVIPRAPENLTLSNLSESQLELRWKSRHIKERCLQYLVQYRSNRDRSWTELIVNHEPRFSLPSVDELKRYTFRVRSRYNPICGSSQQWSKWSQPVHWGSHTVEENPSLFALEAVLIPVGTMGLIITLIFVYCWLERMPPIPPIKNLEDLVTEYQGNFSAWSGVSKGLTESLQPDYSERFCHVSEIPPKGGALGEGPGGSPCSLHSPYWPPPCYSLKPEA

The target in assay [3] is T3, human high-affinity IL-2 receptor IL-2Rαβγ on cells (human, UniProt P01589 22-272; P14784 27-551; P31785 23-369).
T3 sequence (looked up) 1: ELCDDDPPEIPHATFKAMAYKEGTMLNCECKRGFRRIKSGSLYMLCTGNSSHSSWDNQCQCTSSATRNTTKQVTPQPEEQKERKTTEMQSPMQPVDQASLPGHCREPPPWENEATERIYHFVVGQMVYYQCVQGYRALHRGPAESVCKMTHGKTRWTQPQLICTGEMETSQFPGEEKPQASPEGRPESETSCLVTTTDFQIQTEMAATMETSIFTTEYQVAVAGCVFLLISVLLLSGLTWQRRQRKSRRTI
T3 sequence (looked up) 2: T1 sequence (looked up) 1
T3 sequence (looked up) 3: T1 sequence (looked up) 2

Assay [4] concerns the target T4, mouse intermediate-affinity IL-2 receptor IL-2Rβγ on cells (mouse, UniProt P16297 27-539; P34902 23-369).
T4 sequence (looked up) 1: T2 sequence (looked up) 2
T4 sequence (looked up) 2: T2 sequence (looked up) 3

B1: CP-trIL-2 012 (ligand)
chain: PTSSSTKKTQLQLEHLLLDLQMILNGINNYKNPLRPRDLISNINVIVLELKGSETTELKHLQSLEEELKDLEEVLNLAQSKNFHTIVEFLNRWITFSQSIISTLT
notes: H1-H3-H2-H4; loops 1 and 2 removed; de-Ala1, C58S, C125S, P65D
On to B1, for which, in assay [1], the “EC50 of STAT5 activation, human CD8 T cells (flow cytometry)” value stood at 18.6 nM and the “EC50 of STAT5 activation, human NK cells (flow cytometry)” value turned out to be 5.11 nM. Also, the “EC50 of STAT5 activation, mouse Tregs (flow cytometry)” value in assay [2] turned out to be 52 nM. The “EC50 of STAT5 activation, human Tregs (flow cytometry)” value in assay [3] was found to be 7.91 nM. For the same molecule, in assay [4], the “EC50 of STAT5 activation, mouse CD8 T cells (flow cytometry)” value came to 91.8 nM and the “EC50 of STAT5 activation, mouse NK cells (flow cytometry)” value was 84 nM.
